Experiments:
Test in all cases: biochemical
Format in all cases: biochemical
266 human kinases [1] = biological target: T1, 266 human kinases (Homo sapiens, UniProt Q9UL54); settings: TAO2(h); 100 μM
T1 sequence (Q9UL54 1-1235): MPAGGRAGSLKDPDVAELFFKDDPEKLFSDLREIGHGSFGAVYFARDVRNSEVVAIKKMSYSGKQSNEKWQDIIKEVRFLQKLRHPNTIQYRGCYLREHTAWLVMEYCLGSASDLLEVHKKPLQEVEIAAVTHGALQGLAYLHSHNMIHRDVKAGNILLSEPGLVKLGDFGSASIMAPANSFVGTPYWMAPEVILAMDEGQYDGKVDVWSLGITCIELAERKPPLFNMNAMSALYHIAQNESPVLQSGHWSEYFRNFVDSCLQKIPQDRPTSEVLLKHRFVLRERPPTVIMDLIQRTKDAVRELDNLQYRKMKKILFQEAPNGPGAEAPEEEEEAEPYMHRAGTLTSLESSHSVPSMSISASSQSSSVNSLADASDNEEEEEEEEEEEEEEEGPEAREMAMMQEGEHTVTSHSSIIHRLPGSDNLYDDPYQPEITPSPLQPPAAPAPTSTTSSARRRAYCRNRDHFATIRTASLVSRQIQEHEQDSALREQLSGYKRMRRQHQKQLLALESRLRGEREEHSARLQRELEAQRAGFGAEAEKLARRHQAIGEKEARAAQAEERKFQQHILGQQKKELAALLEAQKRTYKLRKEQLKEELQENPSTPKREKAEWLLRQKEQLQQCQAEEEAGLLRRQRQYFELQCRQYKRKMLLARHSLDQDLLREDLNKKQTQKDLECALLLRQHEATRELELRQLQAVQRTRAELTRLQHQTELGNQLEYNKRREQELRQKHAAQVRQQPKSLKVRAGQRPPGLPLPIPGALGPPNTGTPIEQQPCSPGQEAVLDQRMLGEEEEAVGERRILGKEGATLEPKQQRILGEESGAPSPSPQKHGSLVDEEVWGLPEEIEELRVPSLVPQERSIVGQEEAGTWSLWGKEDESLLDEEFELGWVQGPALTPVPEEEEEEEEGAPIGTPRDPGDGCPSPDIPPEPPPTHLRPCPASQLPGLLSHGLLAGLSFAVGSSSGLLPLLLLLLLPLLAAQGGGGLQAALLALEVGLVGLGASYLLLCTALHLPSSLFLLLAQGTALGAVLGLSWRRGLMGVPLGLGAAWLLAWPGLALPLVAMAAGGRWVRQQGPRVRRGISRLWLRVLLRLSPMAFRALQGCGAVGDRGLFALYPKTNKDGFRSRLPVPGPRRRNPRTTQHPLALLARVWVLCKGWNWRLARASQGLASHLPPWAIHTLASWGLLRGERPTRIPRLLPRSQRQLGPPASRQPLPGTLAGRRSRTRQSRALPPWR
Outline: (§1)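 Kinase phosphorylates cationic substrate with radiolabelled ATP phosphate; substrate retained on anionic filter membrane; scintillation count; % of 100% activity control.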

266 human kinases [2] = biological target: 266 human kinases (Homo sapiens, UniProt P14616); settings: IRR(h); 100 μM
Sequence of 266 human kinases (Homo sapiens, UniProt P14616) (P14616 27-1297): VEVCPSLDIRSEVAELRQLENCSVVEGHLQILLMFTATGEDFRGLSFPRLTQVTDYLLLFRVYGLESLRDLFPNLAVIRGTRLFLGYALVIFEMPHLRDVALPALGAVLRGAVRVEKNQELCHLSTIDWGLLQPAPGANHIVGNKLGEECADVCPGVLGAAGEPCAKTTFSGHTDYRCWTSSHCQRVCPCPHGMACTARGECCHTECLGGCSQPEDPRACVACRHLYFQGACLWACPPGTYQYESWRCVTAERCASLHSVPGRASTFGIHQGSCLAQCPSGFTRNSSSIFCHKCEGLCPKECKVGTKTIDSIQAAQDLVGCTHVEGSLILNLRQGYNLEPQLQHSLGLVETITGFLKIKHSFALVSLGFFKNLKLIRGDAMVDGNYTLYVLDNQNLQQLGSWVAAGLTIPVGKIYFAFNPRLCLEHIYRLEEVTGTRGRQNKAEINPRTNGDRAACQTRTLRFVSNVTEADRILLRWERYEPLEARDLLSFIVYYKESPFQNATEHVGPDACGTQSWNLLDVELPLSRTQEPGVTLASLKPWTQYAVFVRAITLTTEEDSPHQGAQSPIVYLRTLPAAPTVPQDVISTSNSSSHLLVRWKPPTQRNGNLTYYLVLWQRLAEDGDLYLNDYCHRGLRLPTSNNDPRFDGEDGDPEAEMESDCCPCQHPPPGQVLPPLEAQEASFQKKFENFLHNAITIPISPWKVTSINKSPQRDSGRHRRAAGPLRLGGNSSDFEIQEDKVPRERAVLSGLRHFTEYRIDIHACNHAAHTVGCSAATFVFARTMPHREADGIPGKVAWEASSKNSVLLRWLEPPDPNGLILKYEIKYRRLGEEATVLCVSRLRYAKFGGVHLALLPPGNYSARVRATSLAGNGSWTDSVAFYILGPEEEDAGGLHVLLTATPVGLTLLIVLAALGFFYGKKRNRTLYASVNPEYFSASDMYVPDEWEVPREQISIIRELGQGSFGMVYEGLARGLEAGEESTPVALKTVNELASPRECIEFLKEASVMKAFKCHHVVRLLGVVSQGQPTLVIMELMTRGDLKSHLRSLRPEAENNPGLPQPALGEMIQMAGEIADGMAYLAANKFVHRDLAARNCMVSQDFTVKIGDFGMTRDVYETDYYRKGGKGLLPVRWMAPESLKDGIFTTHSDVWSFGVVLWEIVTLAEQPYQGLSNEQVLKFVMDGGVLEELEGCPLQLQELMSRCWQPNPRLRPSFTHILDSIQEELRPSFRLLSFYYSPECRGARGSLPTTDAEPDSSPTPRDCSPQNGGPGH
Outline: as §1

266 human kinases [3] = biological target: 266 human kinases (Homo sapiens, UniProt Q86V86); settings: Pim-3(h); 100 μM
Outline: as §1

266 human kinases [4] = biological target: 266 human kinases (Homo sapiens, UniProt P41240); settings: CSK(h); 100 μM
Sequence of 266 human kinases (Homo sapiens, UniProt P41240) (P41240 whole entry): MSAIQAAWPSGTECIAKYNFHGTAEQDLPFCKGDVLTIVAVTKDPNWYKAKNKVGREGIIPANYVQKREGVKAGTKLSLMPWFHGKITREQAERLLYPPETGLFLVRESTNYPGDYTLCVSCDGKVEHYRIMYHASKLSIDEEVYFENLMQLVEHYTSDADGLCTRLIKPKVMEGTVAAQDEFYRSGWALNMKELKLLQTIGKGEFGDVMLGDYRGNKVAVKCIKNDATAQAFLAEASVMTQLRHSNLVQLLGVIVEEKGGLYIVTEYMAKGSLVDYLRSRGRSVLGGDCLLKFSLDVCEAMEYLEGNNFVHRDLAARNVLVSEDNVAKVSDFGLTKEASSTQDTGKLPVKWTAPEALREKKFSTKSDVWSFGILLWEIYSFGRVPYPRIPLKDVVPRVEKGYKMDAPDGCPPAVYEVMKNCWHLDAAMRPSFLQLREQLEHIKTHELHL
Outline: as §1

266 human kinases [5] = biological target: 266 human kinases (Homo sapiens, UniProt P43250); settings: GRK6(h); 100 μM
Sequence of 266 human kinases (Homo sapiens, UniProt P43250) (P43250 whole entry): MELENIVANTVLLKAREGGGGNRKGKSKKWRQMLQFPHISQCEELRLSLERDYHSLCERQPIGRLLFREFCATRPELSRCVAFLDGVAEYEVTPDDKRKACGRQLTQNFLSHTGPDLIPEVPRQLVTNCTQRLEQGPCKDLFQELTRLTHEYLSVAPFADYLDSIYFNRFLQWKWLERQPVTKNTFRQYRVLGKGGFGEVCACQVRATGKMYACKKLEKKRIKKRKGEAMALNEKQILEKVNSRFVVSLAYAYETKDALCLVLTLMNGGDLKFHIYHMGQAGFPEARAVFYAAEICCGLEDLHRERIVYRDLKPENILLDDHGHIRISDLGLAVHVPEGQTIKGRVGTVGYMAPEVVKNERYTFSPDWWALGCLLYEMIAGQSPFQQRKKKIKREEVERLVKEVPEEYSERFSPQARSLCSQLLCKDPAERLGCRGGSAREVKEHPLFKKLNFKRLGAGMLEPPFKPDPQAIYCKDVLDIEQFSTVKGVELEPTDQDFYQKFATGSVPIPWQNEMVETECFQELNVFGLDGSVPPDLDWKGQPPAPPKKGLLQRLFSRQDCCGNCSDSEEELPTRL
Outline: as §1

266 human kinases [6] = biological target: 266 human kinases (Homo sapiens, UniProt P49761); settings: CLK3(h); 100 μM
Sequence of 266 human kinases (Homo sapiens, UniProt P49761) (P49761 whole entry): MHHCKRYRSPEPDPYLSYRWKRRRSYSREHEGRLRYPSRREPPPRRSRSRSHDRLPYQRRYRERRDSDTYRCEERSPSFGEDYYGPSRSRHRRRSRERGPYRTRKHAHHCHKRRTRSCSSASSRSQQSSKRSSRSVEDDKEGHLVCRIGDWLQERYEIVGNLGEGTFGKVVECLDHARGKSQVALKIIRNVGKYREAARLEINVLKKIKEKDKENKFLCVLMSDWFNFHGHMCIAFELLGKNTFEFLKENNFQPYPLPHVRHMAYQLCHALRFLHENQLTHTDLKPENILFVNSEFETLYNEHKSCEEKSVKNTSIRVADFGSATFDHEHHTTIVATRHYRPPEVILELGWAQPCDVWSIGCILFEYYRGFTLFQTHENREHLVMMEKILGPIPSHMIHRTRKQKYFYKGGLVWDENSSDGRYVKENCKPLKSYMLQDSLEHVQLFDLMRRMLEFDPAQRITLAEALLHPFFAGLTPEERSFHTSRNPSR
Outline: as §1

266 human kinases [7] = biological target: T2, 266 human kinases (Homo sapiens, UniProt Q9BXA7); settings: TSSK1(h); 100 μM
T2 sequence (Q9BXA7 1-367): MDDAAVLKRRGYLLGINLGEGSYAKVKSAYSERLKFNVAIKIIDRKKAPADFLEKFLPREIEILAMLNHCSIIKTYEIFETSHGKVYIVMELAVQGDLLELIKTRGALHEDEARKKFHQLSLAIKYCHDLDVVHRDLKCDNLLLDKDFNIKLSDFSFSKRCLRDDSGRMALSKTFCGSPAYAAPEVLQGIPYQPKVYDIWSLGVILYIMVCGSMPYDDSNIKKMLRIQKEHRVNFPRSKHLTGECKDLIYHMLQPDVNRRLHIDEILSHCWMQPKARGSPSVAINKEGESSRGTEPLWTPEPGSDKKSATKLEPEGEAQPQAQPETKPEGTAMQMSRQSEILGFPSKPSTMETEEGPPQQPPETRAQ
Outline: as §1

266 human kinases [8] = biological target: T3, 266 human kinases (Homo sapiens, UniProt Q15831); settings: LKB1(h); 100 μM
T3 sequence (Q15831 1-433): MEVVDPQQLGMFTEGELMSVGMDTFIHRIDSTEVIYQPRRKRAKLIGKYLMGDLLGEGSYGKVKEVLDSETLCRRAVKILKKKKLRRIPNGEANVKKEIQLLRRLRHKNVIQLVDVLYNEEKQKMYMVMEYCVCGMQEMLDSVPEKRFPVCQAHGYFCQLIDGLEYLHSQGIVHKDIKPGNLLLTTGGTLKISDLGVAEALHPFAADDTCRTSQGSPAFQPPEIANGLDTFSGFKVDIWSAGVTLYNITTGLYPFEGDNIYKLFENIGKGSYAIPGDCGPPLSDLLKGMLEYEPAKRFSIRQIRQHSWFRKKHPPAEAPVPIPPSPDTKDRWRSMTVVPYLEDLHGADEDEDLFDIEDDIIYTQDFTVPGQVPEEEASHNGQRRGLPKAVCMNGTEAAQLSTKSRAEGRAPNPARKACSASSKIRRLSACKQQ
Outline: as §1

266 human kinases [9] = biological target: 266 human kinases (Homo sapiens, UniProt O43293); settings: ZIPK(h); 100 μM
Outline: as §1

266 human kinases [10] = biological target: 266 human kinases (Homo sapiens, UniProt Q14289); settings: Pyk2 (h); 100 μM
Sequence of 266 human kinases (Homo sapiens, UniProt Q14289) (Q14289 whole entry): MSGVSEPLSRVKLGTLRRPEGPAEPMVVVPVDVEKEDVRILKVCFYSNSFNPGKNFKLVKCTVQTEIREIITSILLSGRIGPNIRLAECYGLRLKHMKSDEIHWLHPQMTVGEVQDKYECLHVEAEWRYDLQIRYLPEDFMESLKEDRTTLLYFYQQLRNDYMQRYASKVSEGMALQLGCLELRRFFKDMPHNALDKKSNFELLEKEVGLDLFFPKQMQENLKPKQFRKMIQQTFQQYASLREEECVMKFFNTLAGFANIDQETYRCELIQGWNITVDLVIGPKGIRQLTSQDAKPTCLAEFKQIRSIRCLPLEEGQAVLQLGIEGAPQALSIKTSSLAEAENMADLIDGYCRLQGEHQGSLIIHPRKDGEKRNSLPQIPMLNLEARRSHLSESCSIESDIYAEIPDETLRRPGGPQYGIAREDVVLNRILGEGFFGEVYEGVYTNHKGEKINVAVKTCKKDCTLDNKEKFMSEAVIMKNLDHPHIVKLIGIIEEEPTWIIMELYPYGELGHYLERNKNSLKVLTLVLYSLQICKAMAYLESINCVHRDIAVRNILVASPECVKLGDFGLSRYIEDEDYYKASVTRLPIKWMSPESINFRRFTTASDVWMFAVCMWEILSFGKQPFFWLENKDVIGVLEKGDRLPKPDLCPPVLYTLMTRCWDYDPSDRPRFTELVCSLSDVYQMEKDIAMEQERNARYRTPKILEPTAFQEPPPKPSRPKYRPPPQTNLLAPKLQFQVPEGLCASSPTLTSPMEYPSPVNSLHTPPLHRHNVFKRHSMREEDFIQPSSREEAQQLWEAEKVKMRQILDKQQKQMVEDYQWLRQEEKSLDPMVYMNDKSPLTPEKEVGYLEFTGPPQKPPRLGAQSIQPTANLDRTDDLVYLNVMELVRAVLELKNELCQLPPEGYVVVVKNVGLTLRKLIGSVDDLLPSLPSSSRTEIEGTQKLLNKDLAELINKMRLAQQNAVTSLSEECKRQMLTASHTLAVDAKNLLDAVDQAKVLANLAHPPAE
Outline: as §1

266 human kinases [11] = biological target: 266 human kinases (Homo sapiens, UniProt P08069); settings: IGF-1R(h), 100 μM
Outline: as §1

266 human kinases [12] = biological target: 266 human kinases (Homo sapiens, UniProt P78362); settings: SRPK2(h); 100 μM
Sequence of 266 human kinases (Homo sapiens, UniProt P78362) (P78362 whole entry): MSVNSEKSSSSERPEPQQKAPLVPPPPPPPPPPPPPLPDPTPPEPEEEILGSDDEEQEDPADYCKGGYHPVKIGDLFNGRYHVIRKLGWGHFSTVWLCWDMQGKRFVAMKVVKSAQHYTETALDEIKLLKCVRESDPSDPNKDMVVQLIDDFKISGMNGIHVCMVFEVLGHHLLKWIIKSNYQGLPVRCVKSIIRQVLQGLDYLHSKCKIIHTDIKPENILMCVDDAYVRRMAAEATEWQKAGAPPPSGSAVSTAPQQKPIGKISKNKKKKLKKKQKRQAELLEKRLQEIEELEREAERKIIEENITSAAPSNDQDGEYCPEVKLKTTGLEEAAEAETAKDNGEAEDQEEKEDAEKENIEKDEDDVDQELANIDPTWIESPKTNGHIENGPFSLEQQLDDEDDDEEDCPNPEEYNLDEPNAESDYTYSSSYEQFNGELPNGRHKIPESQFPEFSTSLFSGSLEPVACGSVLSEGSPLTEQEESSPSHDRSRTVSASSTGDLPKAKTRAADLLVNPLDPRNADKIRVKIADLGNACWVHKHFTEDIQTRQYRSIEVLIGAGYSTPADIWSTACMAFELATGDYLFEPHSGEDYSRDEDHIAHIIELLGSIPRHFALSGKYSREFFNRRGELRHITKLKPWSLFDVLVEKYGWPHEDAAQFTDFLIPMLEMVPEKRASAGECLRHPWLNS
Outline: as §1

HRRIKAWLKKIKALARQLGVAA (mammal) [MMI-0500]
% activity (266 human kinases [1]): 15% | % activity (266 human kinases [2]): 10% | % activity (266 human kinases [3]): 37% | % activity (266 human kinases [4]): 2% | % activity (266 human kinases [5]): 174% | % activity (266 human kinases [6]): 76% | % activity (266 human kinases [7]): 46% | % activity (266 human kinases [8]): 51% | % activity (266 human kinases [9]): 1% | % activity (266 human kinases [10]): 46% | % activity (266 human kinases [11]; activated): 45% | % activity (266 human kinases [12]): 80%

YARAAARQARAKALNRQLGVA (mammal) [MMI-0200]
% activity (266 human kinases [1]): 93% | % activity (266 human kinases [2]): 69% | % activity (266 human kinases [3]): 94% | % activity (266 human kinases [4]): 33% | % activity (266 human kinases [5]): 132% | % activity (266 human kinases [6]): 76% | % activity (266 human kinases [7]): 98% | % activity (266 human kinases [8]): 99% | % activity (266 human kinases [9]): 67% | % activity (266 human kinases [10]): 127% | % activity (266 human kinases [11]; activated): 94% | % activity (266 human kinases [11]): 49% | % activity (266 human kinases [12]): 100%

— patent publication US20140072613A1, “Compositions and Methods for Treating Cutaneous Scarring” (priority 2012, published 2014)
